Laboratory results published in patent US20230220042A1 (SHANGHAI JIAO TONG UNIVERSITY SCHOOL OF MEDICINE, published 2023).

T1: FcγRIIA^131H (human, UniProt P12318 34-217, biotin-labeled)
T1 construct: extracellular domain; Bought protein; also called RIIAH
T1 sequence (looked up): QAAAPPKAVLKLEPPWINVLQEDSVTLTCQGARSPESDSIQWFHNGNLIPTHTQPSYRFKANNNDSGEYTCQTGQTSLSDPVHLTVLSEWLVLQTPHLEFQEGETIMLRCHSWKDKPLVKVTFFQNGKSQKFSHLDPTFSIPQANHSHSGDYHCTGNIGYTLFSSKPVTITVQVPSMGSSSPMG

T2: FcγRIIB (human, UniProt P31994 43-217, biotin-labeled)
T2 construct: extracellular domain; Bought protein; also called CD32b
T2 sequence (looked up): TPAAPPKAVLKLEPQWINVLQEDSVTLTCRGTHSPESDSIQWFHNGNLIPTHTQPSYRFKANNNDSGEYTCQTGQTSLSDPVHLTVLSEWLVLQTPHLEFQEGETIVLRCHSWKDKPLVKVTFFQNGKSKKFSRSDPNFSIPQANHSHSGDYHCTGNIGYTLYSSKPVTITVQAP

T3: Biotin-FcγRIIB (human, UniProt P31994 43-217, limits assumed, biotin-labelled)
T3 construct: Bought, biotin-labelled; used at 1 µg/ml for staining and sorting; also called human FcγRIIB; CD32b
T3 sequence (looked up): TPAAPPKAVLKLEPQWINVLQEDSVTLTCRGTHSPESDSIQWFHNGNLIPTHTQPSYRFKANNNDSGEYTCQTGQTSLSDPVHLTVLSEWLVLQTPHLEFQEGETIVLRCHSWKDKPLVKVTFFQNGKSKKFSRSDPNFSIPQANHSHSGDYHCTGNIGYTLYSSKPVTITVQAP


Experiments:
FcγRIIA^131R (human) = FcγRIIA^131R (human) (UniProt P12318); assay: ELISA, coated antibody, biotin-FcγR;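 for Absorbance value: antibody coated at 2 µg/mL at 100 µL per well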
FcγRIIIA^158F = molecular target: T4, FcγRIIIA^158F (human, UniProt P08637 17-208, biotin-labeled); assay: ELISA, coated antibody, biotin-FcγR;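 for Absorbance value: antibody coated at 2 µg/mL at 100 µL per well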
T4 construct: extracellular domain; Bought protein; also called RIIIAF

FcγRIIA^131H = molecular target: T1, FcγRIIA^131H; assay: ELISA, coated antibody, biotin-FcγR;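 for Absorbance value: antibody coated at 2 µg/mL at 100 µL per well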
FcγRIIIA^158V = molecular target: T5, FcγRIIIA^158V (human, UniProt P08637 17-208, biotin-labeled); assay: ELISA, coated antibody, biotin-FcγR;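 for Absorbance value: antibody coated at 2 µg/mL at 100 µL per well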
T5 construct: extracellular domain; Bought protein; also called RIIIAV; CD16a 158V

FcγRIIB [1] = molecular target: T2, FcγRIIB; assay: ELISA, coated antibody, biotin-FcγR;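 for Absorbance value: antibody coated at 2 µg/mL at 100 µL per well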
FcγRI = molecular target: T6, FcγRI (human, UniProt P12314 16-292, biotin-labeled); assay: ELISA, coated antibody, biotin-FcγR;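 for Absorbance value: antibody coated at 2 µg/mL at 100 µL per well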
T6 construct: extracellular domain; Bought protein; also called CD64

FcγRIIB [2] = molecular target: T2, FcγRIIB; assay: ELISA; relative affinity to FcγRIIB over that to FcγRIIA131R
Biotin-FcγRIIB [3] = molecular target: T3, Biotin-FcγRIIB; assay: FACS sorting of displayed Fc library on biotin-FcγRIIB, NGS; reference G327A
Biotin-FcγRIIB [4] = molecular target: T3, Biotin-FcγRIIB; assay: FACS sorting of displayed Fc library on biotin-FcγRIIB, NGS

T5 sequence (P08637 17-208 F176V): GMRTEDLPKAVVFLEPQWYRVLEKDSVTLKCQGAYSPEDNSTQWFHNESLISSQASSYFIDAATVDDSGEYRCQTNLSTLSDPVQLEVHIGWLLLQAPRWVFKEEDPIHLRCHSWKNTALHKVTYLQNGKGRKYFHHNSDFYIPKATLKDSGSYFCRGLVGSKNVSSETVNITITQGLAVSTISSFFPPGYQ
T6 sequence (P12314 16-292): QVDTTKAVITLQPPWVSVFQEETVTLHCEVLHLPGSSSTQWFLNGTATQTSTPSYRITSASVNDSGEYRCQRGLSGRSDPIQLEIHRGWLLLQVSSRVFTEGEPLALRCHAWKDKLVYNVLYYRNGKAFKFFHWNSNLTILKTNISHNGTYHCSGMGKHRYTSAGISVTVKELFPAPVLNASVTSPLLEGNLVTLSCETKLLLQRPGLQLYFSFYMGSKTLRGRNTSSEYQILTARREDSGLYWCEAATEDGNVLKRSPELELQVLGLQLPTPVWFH
T4 sequence (P08637 17-208): as the sequence (P08637 17-208 F176V) above, with V160F counted along it

Row | Binder | Increased factor 2 c Site 1 (combined/point mutation) (Biotin-FcγRIIB [3]) | Enrichment factor (after/before sorting) (Biotin-FcγRIIB [4]) | Increased factor a (enrichment factor/wild-type enrichment factor) (Biotin-FcγRIIB [4]) | further results
1 | anti-human OX40 IgG2 antibody Mut_26 (V234Q/A235G/P238L/S239V/S267E/H268S/E269D) (antibody, Substitutions in Eu numbering; entries include an unstated signal peptide) heavy: QVQLQESGPGLVKPSGTLSLTCAVSGGSISSSIWWSWVRQPPGKGLEWIGEIHHSGNTNCNPSLKSRVTISIDKSKNQFSLKLTSVTAADTAVYYCARAGTGTTLDYWGQGTLVTVSSASTKGPSVFPLAPCSRSTSESTAALGCLVKDYFPEPVTVSWNSGALTSGVHTFPAVLQSSGLYSLSSVVTVPSSNFGTQTYTCNVDHKPSNTKVDKTVERKCCVECPPCPAPPQGGLVVFLFPPKPKDTLMISRTPEVTCVVVDVESDDPEVQFNWYVDGVEVHNAKTKPREEQFNSTFRVVSVLTVVHQDWLNGKEYKCKVSNKGLPAPIEKTISKTKGQPREPQVYTLPPSREEMTKNQVSLTCLVKGFYPSDIAVEWESNGQPENNYKTTPPMLDSDGSFFLYSKLTVDKSRWQQGNVFSCSVMHEALHNHYTQKSLSLSPGK light: EIVLTQSPGTLSLSPGERATLSCRASQSVSGDYLAWYQQKLGQAPRLLIYGASIRATGIPDRFSGSGSGTDFTLTISKLEPEDFAVYYCQQYGSSPLTFGGGTKVEIKRTVAAPSVFIFPPSDEQLKSGTASVVCLLNNFYPREAKVQWKVDNALQSGNSQESVTEQDSKDSTYSLSSTLTLSKADYEKHKVYACEVTHQGLSSPVTKSFNRGEC |  |  |  | Absorbance value (FcγRIIA^131R (human)): 0.08 A650; Relative binding affinity RIIAR/G1 (FcγRIIA^131R (human)): 0.32; Absorbance value (FcγRIIIA^158F): 0.08 A650; Relative binding affinity RIIIAF/G1 (FcγRIIIA^158F): 0.41 ratio; Absorbance value (FcγRIIA^131H): 0.06 A650; Relative binding affinity RIIAH/G1 (FcγRIIA^131H): 0.11 ratio; Absorbance value (FcγRIIIA^158V): 0.09 A650; Relative binding affinity RIIIAV/G1 (FcγRIIIA^158V): 0.09 ratio; Absorbance value (FcγRIIB [1]): 0.55 A650; Increased factor of RIIB binding compared with wild-type IgG2 (FcγRIIB [1]): 7.28 fold; Relative binding affinity RIIB/G1 (FcγRIIB [1]): 0.72 ratio; Absorbance value (FcγRI): 0.19 A650; Relative binding affinity RI/G1 (FcγRI): 0.07 ratio; RIIB/RIIAR (FcγRIIB [2]): 2.24 ratio
2 | human IgG2 anti-mouse CD40 surface displayed antibody, Fc mutant G327A/A330R (antibody, name in EU numbering, as m1; positions are Eu numbers; copies: 2 + 2) light chain (with the P2A rest): DTVLTQSPALAVSPGERVTISCRASDSVSTLMHWYQQKPGQQPKLLIYLASHLESGVPARFSGSGSGTDFTLTIDPVEADDTATYYCQQSWNDPWTFGGGTKLELKRTVAAPSVFIFPPSDEQLKSGTASVVCLLNNFYPREAKVQWKVDNALQSGNSQESVTEQDSKDSTYSLSSTLTLSKADYEKHKVYACEVTHQGLSSPVTKSFNRGECGSGATNFSLLKQAGDVEENPG heavy chain: EVQLVESDGGLVQPGRSLKLPCAASGFTFSDYYMAWVRQAPTKGLEWVASISYDGSSTYYRDSVKGRFTISRDNAKSTLYLQMDSLRSEDTATYYCGRHSSYFDYWGQGVMVTVSSASTKGPSVFPLAPCSRSTSESTAALGCLVKDYFPEPVTVSWNSGALTSGVHTFPAVLQSSGLYSLSSVVTVPSSNFGTQTYTCNVDHKPSNTKVDKTVERKCCVECPPCPAPPVAGPSVFLFPPKPKDTLMISRTPEVTCVVVDVSHEDPEVQFNWYVDGVEVHNAKTKPREEQFNSTFRVVSVLTVVHQDWLNGKEYKCKVSNKALPRPIEKTISKTKGQPREPQVYTLPPSREEMTKNQVSLTCLVKGFYPSDIAVEWESNGQPENNYKTTPPMLDSDGSFFLYSKLTVDKSRWQQGNVFSCSVMHEALHNHYTQKSLSLSPGKLEPPPSTVSNMATVAVLVVLGAAIVTGAVVAFVMKMRRRNTGGKGGDYALAPGSQTSDLSLPDCKVMVHDPHSLA | 19.5 | 98.3 | 65.8 | 
3 | human IgG2 anti-mouse CD40 surface displayed antibody, Fc mutant G327A/A330V (antibody, name in EU numbering, as m1; positions are Eu numbers; copies: 2 + 2) light chain (with the P2A rest): DTVLTQSPALAVSPGERVTISCRASDSVSTLMHWYQQKPGQQPKLLIYLASHLESGVPARFSGSGSGTDFTLTIDPVEADDTATYYCQQSWNDPWTFGGGTKLELKRTVAAPSVFIFPPSDEQLKSGTASVVCLLNNFYPREAKVQWKVDNALQSGNSQESVTEQDSKDSTYSLSSTLTLSKADYEKHKVYACEVTHQGLSSPVTKSFNRGECGSGATNFSLLKQAGDVEENPG heavy chain: EVQLVESDGGLVQPGRSLKLPCAASGFTFSDYYMAWVRQAPTKGLEWVASISYDGSSTYYRDSVKGRFTISRDNAKSTLYLQMDSLRSEDTATYYCGRHSSYFDYWGQGVMVTVSSASTKGPSVFPLAPCSRSTSESTAALGCLVKDYFPEPVTVSWNSGALTSGVHTFPAVLQSSGLYSLSSVVTVPSSNFGTQTYTCNVDHKPSNTKVDKTVERKCCVECPPCPAPPVAGPSVFLFPPKPKDTLMISRTPEVTCVVVDVSHEDPEVQFNWYVDGVEVHNAKTKPREEQFNSTFRVVSVLTVVHQDWLNGKEYKCKVSNKALPVPIEKTISKTKGQPREPQVYTLPPSREEMTKNQVSLTCLVKGFYPSDIAVEWESNGQPENNYKTTPPMLDSDGSFFLYSKLTVDKSRWQQGNVFSCSVMHEALHNHYTQKSLSLSPGKLEPPPSTVSNMATVAVLVVLGAAIVTGAVVAFVMKMRRRNTGGKGGDYALAPGSQTSDLSLPDCKVMVHDPHSLA | 1.4 | 6.98 | 4.67 | 
4 | human IgG2 anti-mouse CD40 surface displayed antibody, Fc mutant G327A/I332A (antibody, name in EU numbering, as m1; positions are Eu numbers; copies: 2 + 2) light chain (with the P2A rest): DTVLTQSPALAVSPGERVTISCRASDSVSTLMHWYQQKPGQQPKLLIYLASHLESGVPARFSGSGSGTDFTLTIDPVEADDTATYYCQQSWNDPWTFGGGTKLELKRTVAAPSVFIFPPSDEQLKSGTASVVCLLNNFYPREAKVQWKVDNALQSGNSQESVTEQDSKDSTYSLSSTLTLSKADYEKHKVYACEVTHQGLSSPVTKSFNRGECGSGATNFSLLKQAGDVEENPG heavy chain: EVQLVESDGGLVQPGRSLKLPCAASGFTFSDYYMAWVRQAPTKGLEWVASISYDGSSTYYRDSVKGRFTISRDNAKSTLYLQMDSLRSEDTATYYCGRHSSYFDYWGQGVMVTVSSASTKGPSVFPLAPCSRSTSESTAALGCLVKDYFPEPVTVSWNSGALTSGVHTFPAVLQSSGLYSLSSVVTVPSSNFGTQTYTCNVDHKPSNTKVDKTVERKCCVECPPCPAPPVAGPSVFLFPPKPKDTLMISRTPEVTCVVVDVSHEDPEVQFNWYVDGVEVHNAKTKPREEQFNSTFRVVSVLTVVHQDWLNGKEYKCKVSNKALPAPAEKTISKTKGQPREPQVYTLPPSREEMTKNQVSLTCLVKGFYPSDIAVEWESNGQPENNYKTTPPMLDSDGSFFLYSKLTVDKSRWQQGNVFSCSVMHEALHNHYTQKSLSLSPGKLEPPPSTVSNMATVAVLVVLGAAIVTGAVVAFVMKMRRRNTGGKGGDYALAPGSQTSDLSLPDCKVMVHDPHSLA | 5.8 | 29.2 | 19.5 | 
5 | human IgG2 anti-mouse CD40 surface displayed antibody, Fc mutant G327A/I332C (antibody, name in EU numbering, as m1; positions are Eu numbers; copies: 2 + 2) light chain (with the P2A rest): DTVLTQSPALAVSPGERVTISCRASDSVSTLMHWYQQKPGQQPKLLIYLASHLESGVPARFSGSGSGTDFTLTIDPVEADDTATYYCQQSWNDPWTFGGGTKLELKRTVAAPSVFIFPPSDEQLKSGTASVVCLLNNFYPREAKVQWKVDNALQSGNSQESVTEQDSKDSTYSLSSTLTLSKADYEKHKVYACEVTHQGLSSPVTKSFNRGECGSGATNFSLLKQAGDVEENPG heavy chain: EVQLVESDGGLVQPGRSLKLPCAASGFTFSDYYMAWVRQAPTKGLEWVASISYDGSSTYYRDSVKGRFTISRDNAKSTLYLQMDSLRSEDTATYYCGRHSSYFDYWGQGVMVTVSSASTKGPSVFPLAPCSRSTSESTAALGCLVKDYFPEPVTVSWNSGALTSGVHTFPAVLQSSGLYSLSSVVTVPSSNFGTQTYTCNVDHKPSNTKVDKTVERKCCVECPPCPAPPVAGPSVFLFPPKPKDTLMISRTPEVTCVVVDVSHEDPEVQFNWYVDGVEVHNAKTKPREEQFNSTFRVVSVLTVVHQDWLNGKEYKCKVSNKALPAPCEKTISKTKGQPREPQVYTLPPSREEMTKNQVSLTCLVKGFYPSDIAVEWESNGQPENNYKTTPPMLDSDGSFFLYSKLTVDKSRWQQGNVFSCSVMHEALHNHYTQKSLSLSPGKLEPPPSTVSNMATVAVLVVLGAAIVTGAVVAFVMKMRRRNTGGKGGDYALAPGSQTSDLSLPDCKVMVHDPHSLA | 2.3 | 11.4 | 7.64 | 
6 | human IgG2 anti-mouse CD40 surface displayed antibody, Fc mutant G327A/I332E (antibody, name in EU numbering, as m1; positions are Eu numbers; copies: 2 + 2) light chain (with the P2A rest): DTVLTQSPALAVSPGERVTISCRASDSVSTLMHWYQQKPGQQPKLLIYLASHLESGVPARFSGSGSGTDFTLTIDPVEADDTATYYCQQSWNDPWTFGGGTKLELKRTVAAPSVFIFPPSDEQLKSGTASVVCLLNNFYPREAKVQWKVDNALQSGNSQESVTEQDSKDSTYSLSSTLTLSKADYEKHKVYACEVTHQGLSSPVTKSFNRGECGSGATNFSLLKQAGDVEENPG heavy chain: EVQLVESDGGLVQPGRSLKLPCAASGFTFSDYYMAWVRQAPTKGLEWVASISYDGSSTYYRDSVKGRFTISRDNAKSTLYLQMDSLRSEDTATYYCGRHSSYFDYWGQGVMVTVSSASTKGPSVFPLAPCSRSTSESTAALGCLVKDYFPEPVTVSWNSGALTSGVHTFPAVLQSSGLYSLSSVVTVPSSNFGTQTYTCNVDHKPSNTKVDKTVERKCCVECPPCPAPPVAGPSVFLFPPKPKDTLMISRTPEVTCVVVDVSHEDPEVQFNWYVDGVEVHNAKTKPREEQFNSTFRVVSVLTVVHQDWLNGKEYKCKVSNKALPAPEEKTISKTKGQPREPQVYTLPPSREEMTKNQVSLTCLVKGFYPSDIAVEWESNGQPENNYKTTPPMLDSDGSFFLYSKLTVDKSRWQQGNVFSCSVMHEALHNHYTQKSLSLSPGKLEPPPSTVSNMATVAVLVVLGAAIVTGAVVAFVMKMRRRNTGGKGGDYALAPGSQTSDLSLPDCKVMVHDPHSLA | 24.9 | 126 | 84.1 | 
